Among the data in article PMC10397247 are interaction score values, retold here.

The target in one experiment is T1, P3-AA.
T1 chain: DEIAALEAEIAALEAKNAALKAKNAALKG
Nature of the experiment: two-hybrid library CCmax.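 Further: natural log of median RNA to DNA barcode read ratio; higher means stronger binding.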 As to conditions: mean of both orientations.

Another experiment has as its target T2, P12-AA.
T2 chain: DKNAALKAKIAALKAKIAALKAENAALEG
Put plainly: two-hybrid library CCmax.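 Further: natural log of median RNA to DNA barcode read ratio; higher means stronger binding.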 As to conditions: mean of both orientations.

The target of a further experiment is T3, P2-AA.
T3 chain: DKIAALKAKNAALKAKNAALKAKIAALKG
Nature of the experiment: two-hybrid library CCmax.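 Further: natural log of median RNA to DNA barcode read ratio; higher means stronger binding.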 As to conditions: mean of both orientations.

The target in another experiment is T4, P11-AA.
T4 chain: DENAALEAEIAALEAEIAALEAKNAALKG
Put plainly: two-hybrid library CCmax.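 Further: natural log of median RNA to DNA barcode read ratio; higher means stronger binding.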 The note with it: mean of both orientations.

For another experiment, the target named is T5, P4-AA.
T5 chain: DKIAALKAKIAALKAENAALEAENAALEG
Put plainly: two-hybrid library CCmax. The note with it: mean of both orientations.

The next experiment has as its target T6, P8-AA.
T6 chain: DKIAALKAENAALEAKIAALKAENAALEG
Put plainly: two-hybrid library CCmax. As to conditions: mean of both orientations.

A further experiment addresses T7, P1-AA.
T7 chain: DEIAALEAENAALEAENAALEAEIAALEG
Nature of the experiment: two-hybrid library CCmax. As to conditions: mean of both orientations.

The next experiment has as its target GCN2_T. Nature of the experiment: two-hybrid library CCmax.
In the next experiment the target is T8, P10-AA.
T8 chain: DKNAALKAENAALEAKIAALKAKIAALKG
Nature of the experiment: two-hybrid library CCmax. As to conditions: mean of both orientations.

For the next experiment, the target named is T9, P9-AA.
T9 chain: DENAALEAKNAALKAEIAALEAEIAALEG
Put plainly: two-hybrid library CCmax. The note with it: mean of both orientations.

The next experiment deals with T10, AP8-AA.
T10 chain: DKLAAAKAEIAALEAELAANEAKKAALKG
Put plainly: two-hybrid library CCmax.

Another experiment concerns the target T11, P7-AA.
T11 chain: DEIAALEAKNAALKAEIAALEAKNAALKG
Put plainly: two-hybrid library CCmax. The note with it: mean of both orientations.

In another experiment the target is T12, P8mS.
T12 chain: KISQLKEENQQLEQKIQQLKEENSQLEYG
Put plainly: two-hybrid library CC1. The note with it: mean of both orientations.

Another experiment addresses T13, P8.
T13 chain: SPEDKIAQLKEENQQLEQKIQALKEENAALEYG
Nature of the experiment: two-hybrid library CC1. As to conditions: mean of both orientations.

Another experiment addresses T14, P7mS.
T14 chain: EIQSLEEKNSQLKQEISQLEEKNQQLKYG
Put plainly: two-hybrid library CC1. The note with it: mean of both orientations.

The next experiment concerns the target T15, P6mS.
T15 chain: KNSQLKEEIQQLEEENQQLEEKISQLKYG
Put plainly: two-hybrid library CC1.

Another experiment addresses T16, P7.
T16 chain: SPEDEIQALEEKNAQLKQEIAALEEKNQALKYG
Put plainly: two-hybrid library CC1. As to conditions: mean of both orientations.

A further experiment concerns the target T17, P9.
T17 chain: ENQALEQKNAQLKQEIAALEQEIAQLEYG
Nature of the experiment: two-hybrid library CC1. As to conditions: mean of both orientations.

Another experiment concerns the target T18, 4H656-AA.
T18 chain: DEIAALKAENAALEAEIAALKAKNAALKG
Put plainly: two-hybrid library CCmax. The note with it: mean of both orientations.

The target of a further experiment is T19, 4H478-AA.
T19 chain: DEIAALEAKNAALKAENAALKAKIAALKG
Nature of the experiment: two-hybrid library CCmax. As to conditions: mean of both orientations.

A further experiment has as its target T20, 4H497-AA.
T20 chain: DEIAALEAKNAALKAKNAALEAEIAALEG
Put plainly: two-hybrid library CCmax. As to conditions: mean of both orientations.

The next experiment addresses T21, 4H3709-AA.
T21 chain: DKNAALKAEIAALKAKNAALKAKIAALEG
Nature of the experiment: two-hybrid library CCmax. The note with it: mean of both orientations.

A further experiment has as its target T22, 4H971-AA.
T22 chain: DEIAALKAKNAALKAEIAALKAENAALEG
Nature of the experiment: two-hybrid library CCmax. The note with it: mean of both orientations.

Another experiment addresses T23, 4H3102-AA.
T23 chain: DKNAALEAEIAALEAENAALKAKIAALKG
Put plainly: two-hybrid library CCmax. The note with it: mean of both orientations.

In a further experiment the target is T24, 4H3121-AA.
T24 chain: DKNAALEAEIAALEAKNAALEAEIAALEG
Nature of the experiment: two-hybrid library CCmax. As to conditions: mean of both orientations.

A further experiment has as its target T25, 4H3666-AA.
T25 chain: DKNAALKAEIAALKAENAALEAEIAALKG
Nature of the experiment: two-hybrid library CCmax. The note with it: mean of both orientations.

In the next experiment the target is T26, 4H3066-AA.
T26 chain: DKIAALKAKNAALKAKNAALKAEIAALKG
Nature of the experiment: two-hybrid library CCmax. As to conditions: mean of both orientations.

The next experiment concerns the target T27, 4H3029-AA.
T27 chain: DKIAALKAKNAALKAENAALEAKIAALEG
Put plainly: two-hybrid library CCmax. As to conditions: mean of both orientations.

The next experiment addresses T28, 4H675-AA.
T28 chain: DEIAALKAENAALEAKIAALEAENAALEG
Put plainly: two-hybrid library CCmax. As to conditions: mean of both orientations.

A further experiment deals with T29, 4H2991-AA.
T29 chain: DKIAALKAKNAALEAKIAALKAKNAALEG
Put plainly: two-hybrid library CCmax.

For a further experiment, the target named is T30, 4H3939-AA.
T30 chain: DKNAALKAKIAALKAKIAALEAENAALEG
Nature of the experiment: two-hybrid library CCmax. The note with it: mean of both orientations.

In the next experiment the target is T31, 4H3446-AA.
T31 chain: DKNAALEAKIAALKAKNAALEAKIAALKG
Put plainly: two-hybrid library CCmax. The note with it: mean of both orientations.

The target in the next experiment is T32, 4H2948-AA.
T32 chain: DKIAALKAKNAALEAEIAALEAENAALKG
Nature of the experiment: two-hybrid library CCmax. The note with it: mean of both orientations.

The next experiment has as its target T33, 4H3591-AA.
T33 chain: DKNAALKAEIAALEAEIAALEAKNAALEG
Put plainly: two-hybrid library CCmax. As to conditions: mean of both orientations.

The target of another experiment is T34, 4H391-AA.
T34 chain: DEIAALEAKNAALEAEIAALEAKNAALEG
Put plainly: two-hybrid library CCmax. The note with it: mean of both orientations.

A further experiment deals with T35, 4H3417-AA.
T35 chain: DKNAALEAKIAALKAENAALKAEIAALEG
Put plainly: two-hybrid library CCmax. As to conditions: mean of both orientations.

In another experiment the target is T36, 4H2742-AA.
T36 chain: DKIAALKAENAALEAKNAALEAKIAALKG
Put plainly: two-hybrid library CCmax.

Another experiment deals with T37, 4H3628-AA.
T37 chain: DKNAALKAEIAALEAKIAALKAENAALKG
Nature of the experiment: two-hybrid library CCmax.

In a further experiment the target is T38, 4H428-AA.
T38 chain: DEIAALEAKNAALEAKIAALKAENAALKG
Put plainly: two-hybrid library CCmax. As to conditions: mean of both orientations.

Another experiment deals with T39, 4H3920-AA.
T39 chain: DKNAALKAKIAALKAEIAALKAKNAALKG
Put plainly: two-hybrid library CCmax. The note with it: mean of both orientations.

In the case of DKLAAAKAEIAALEAELAANEAKKAALKG [AP8-AA], the interaction score is -1.35 with P3-AA; -0.366 with P12-AA; -1.71 with P2-AA; -1.41 with P11-AA; -1.17 with P4-AA; -1.39 in the experiment with P8-AA. For the same molecule, the interaction score in the experiment with P1-AA is -1.78; with GCN2_T, -1.88; in the experiment with P10-AA it was -0.57; in the experiment with P9-AA, -0.718; with AP8-AA it was -1.3; with P7-AA it was -1.21.
Regarding KNSQLKEEIQQLEEENQQLEEKISQLKYG [P6mS], the interaction score in the experiment with P8mS is -2.85; with P8, -2.63; with P7mS, -2.67; in the experiment with P6mS, -2.84; with P7, -2.01; with P9 it was -2.37.
DKIAALKAENAALEAKNAALEAKIAALKG [4H2742-AA]: the interaction score with 4H656-AA was -2; with 4H478-AA it was 1.12; with 4H497-AA it was 2.42; with 4H3709-AA, -1.19; in the experiment with 4H971-AA, -1.91; in the experiment with 4H3102-AA, -1.33. Moreover, the interaction score with 4H3121-AA was -1.7; with 4H3666-AA, -1.97; in the experiment with 4H3066-AA, 1.72; with 4H3029-AA it was 0.775; with 4H675-AA, -1.53; with 4H2991-AA, -0.693. Besides, the interaction score is -1.63 with 4H3939-AA; -1.39 in the experiment with 4H3446-AA; -0.899 in the experiment with 4H2948-AA; -0.99 with 4H3591-AA; -1.21 with 4H391-AA; -1.41 with 4H3417-AA. Besides, the interaction score with 4H2742-AA was -0.3; with 4H3628-AA, -1.49; with 4H428-AA, -1.6; with 4H3920-AA, -1.23.
